Measured values from paper PMC6612188.
Numbering of substitutions follows the chain as printed.

Legend:
[1] = molecular target: T1, VraRM13A (unphosphorylated) M13A (Staphylococcus aureus) (UniProt Q7A2Q1); experiment: DNase I footprinting; conditions: 10 mM Tris pH 7.5, 50 mM KCl, 1 mM DTT, 10 mM MgCl2, 50% glycerol, 20 ng/ul herring sperm DNA; 2 ng amplicon; protein 0-50 uM; temperature not stated
T1 sequence: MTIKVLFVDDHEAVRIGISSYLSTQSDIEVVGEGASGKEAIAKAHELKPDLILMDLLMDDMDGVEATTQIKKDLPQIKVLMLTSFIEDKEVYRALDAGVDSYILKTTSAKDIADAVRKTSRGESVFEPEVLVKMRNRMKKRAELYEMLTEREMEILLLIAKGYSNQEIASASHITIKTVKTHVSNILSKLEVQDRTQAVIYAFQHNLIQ

[2] = molecular target: T2, VraR (unphosphorylated) (Staphylococcus aureus) (UniProt Q7A2Q1); experiment: DNase I footprinting; conditions: 10 mM Tris pH 7.5, 50 mM KCl, 1 mM DTT, 10 mM MgCl2, 50% glycerol, 20 ng/ul herring sperm DNA; 2 ng amplicon; protein 0-50 uM; temperature not stated
T2 sequence: T1 sequence with A13M

For “TGAAATGACGCATTGATTGTGTTCTTAATTATTATAAAACAGTTCCGAAACCAATATGAATAGGCTCCGGAACTAAATGATGTTCATACTTTAGTCTTAGTATATGTTGAACTATTCTTCTTCAATCTTTGTCGTTAAAATCGGACCAAGCTTCGT (double strand) [PvraSR (-121 to +26)]”, the binding [1] was “binds more weakly” and the binding [2] was “binds”.
